Source: IntAct's records for PubMed 16499958

How the values were obtained:
[1] = target: rabx5_human RABGEF1 (UniProt Q9UJ41)
[2] = target: rabx5_human RABGEF1 (UniProt Q9UJ41); remark: listed apart in the source

“Polyubiquitin-B (Homo sapiens) (from UniProt P0CG47) D58A” was tested, and the “effect of a mutation on the interaction” value [1] was “decreasing interaction”.

With “Polyubiquitin-B (Homo sapiens) (from UniProt P0CG47) I44A” the “effect of a mutation on the interaction” value [2] was “decreasing interaction”.
